Test results reported in patent US20050048055A1.

Target: mouse CD40 on BALB/c thymocytes (mouse) (UniProt P27512)
Test: cell-based or functional assay

Sequence of UniProt P27512 (P27512 20-289): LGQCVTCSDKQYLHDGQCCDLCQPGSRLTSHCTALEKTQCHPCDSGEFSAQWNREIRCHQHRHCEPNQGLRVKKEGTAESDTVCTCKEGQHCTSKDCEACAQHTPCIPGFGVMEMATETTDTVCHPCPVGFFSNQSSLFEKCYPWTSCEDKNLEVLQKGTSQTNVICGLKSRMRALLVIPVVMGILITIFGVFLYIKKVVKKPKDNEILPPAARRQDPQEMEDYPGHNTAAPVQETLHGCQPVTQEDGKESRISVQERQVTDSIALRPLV

Substance: rat IgG anti-mouse CD40, 1C10 (antibody)
- increase in Vα8 expression in gated DP thymocytes: 12%
- percent Vα11+ thymocytes: 3.3%
